Measurements taken from PMC10407285 (The Journal of Biological Chemistry, 2023).

Key:
[1] = biological target: T1, Ca. Woesearchaeota archaeon SpeD homolog (PIN80235) (Candidatus Woesearchaeota archaeon CG10_big_fil_rev_8_21_14_0_10_34_8, UniProt A0A2G9MN15); test: coupled CO2-release assay (NADH, A340), Michaelis-Menten fit; assay type: biochemical; conditions: 50 mM Hepes pH 7.7, 100 mM NaCl, 1 mM DTT, 26 °C; pyruvoyl-dependent decarboxylation
T1 construct: self-processed pyruvoyl enzyme
Text: Woesearchaeota archaeon SpeD homolog (PIN80235)

[2] = biological target: T2, Ca. Diapherotrites archaeon SpeD homolog (PIN84875) (Candidatus Diapherotrites archaeon CG11_big_fil_rev_8_21_14_0_20_37_9, UniProt A0A2G9N1A6); test: as above; assay type: biochemical; conditions: 50 mM Hepes pH 7.7, 100 mM NaCl, 1 mM DTT, 26 °C; pyruvoyl-dependent decarboxylation
T2 construct: self-processed pyruvoyl enzyme
T2 sequence (A0A2G9N1A6 1-75 limits assumed): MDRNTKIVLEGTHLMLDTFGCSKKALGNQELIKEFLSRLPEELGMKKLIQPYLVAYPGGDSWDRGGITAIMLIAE
T2 sequence (A0A2G9N1A6 76-142 limits assumed): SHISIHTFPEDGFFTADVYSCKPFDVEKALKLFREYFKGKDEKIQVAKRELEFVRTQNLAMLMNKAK
Text: Diapherotrites archaeon SpeD homolog (PIN84875)

[3] = biological target: T3, Ca. Marinimicrobia bacterium SpeD (PIS27863) (Fidelibacterota bacterium CG08_land_8_20_14_0_20_45_22, UniProt A0A2H0XSF6); test: as above; assay type: biochemical, Candidatus Fidelibacterota bacterium; conditions: 50 mM Hepes pH 7.7, 100 mM NaCl, 1 mM DTT, 26 °C; pyruvoyl-dependent decarboxylation
T3 construct: self-processed pyruvoyl enzyme
T3 sequence (A0A2H0XSF6 1-72 limits assumed): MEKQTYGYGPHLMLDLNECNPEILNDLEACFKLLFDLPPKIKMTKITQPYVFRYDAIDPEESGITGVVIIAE
T3 sequence (A0A2H0XSF6 73-131 limits assumed): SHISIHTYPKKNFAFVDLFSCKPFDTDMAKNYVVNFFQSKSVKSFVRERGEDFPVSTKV
Text: Marinimicrobia bacterium SpeD (PIS27863)

[4] = system: Ca. Sumerlaeota bacterium SpeD2 (MBN1518199); conditions: 50 mM Hepes pH 7.7, 100 mM NaCl, 1 mM DTT, 26 °C; pyruvoyl-dependent decarboxylation
Text: coupled CO2-release assay (NADH, A340), Michaelis-Menten fit on Ca. Sumerlaeota bacterium SpeD2 (MBN1518199)

[5] = biological target: T4, Ca. Electrothrix aarhusiensis SpeD homolog (RWX43081) (Candidatus Electrothrix aarhusensis, UniProt A0A3S3QFL2); conditions: 50 mM Hepes pH 7.7, 100 mM NaCl, 1 mM DTT, 26 °C; pyruvoyl-dependent decarboxylation
T4 construct: gene H206_03171
T4 sequence (A0A3S3QFL2 entry or part of it): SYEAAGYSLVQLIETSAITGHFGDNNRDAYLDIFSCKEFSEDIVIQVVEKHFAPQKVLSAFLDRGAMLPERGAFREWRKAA
T4 sequence (A0A3S3QFL2 entry or part of it): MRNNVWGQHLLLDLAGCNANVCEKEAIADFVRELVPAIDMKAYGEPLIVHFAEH
Text: coupled CO2-release assay (NADH, A340), Michaelis-Menten fit on Ca. Electrothrix aarhusiensis SpeD homolog (RWX43081)

[6] = system: Ca. Peribacteria bacterium SpeD (OGJ64158); conditions: 50 mM Hepes pH 7.7, 100 mM NaCl, 1 mM DTT, 26 °C; pyruvoyl-dependent decarboxylation
Text: coupled CO2-release assay (NADH, A340), Michaelis-Menten fit on Ca. Peribacteria bacterium SpeD (OGJ64158)

[7] = system: Ca. Atribacteria bacterium SpeD2 (PIU25646); conditions: 50 mM Hepes pH 7.7, 100 mM NaCl, 1 mM DTT, 26 °C; pyruvoyl-dependent decarboxylation
Text: coupled CO2-release assay (NADH, A340), Michaelis-Menten fit on Ca. Atribacteria bacterium SpeD2 (PIU25646)
N=C(N)NCCC[C@H](N)C(=O)O = test: purified protein; conditions: 50 mM Hepes pH 7.7, 100 mM NaCl, 1 mM DTT, 26 °C, pyruvoyl-dependent decarboxylation
[8] = substrate: N=C(N)NCCC[C@H](N)C(=O)O; test: coupled CO2-release assay (NADH, A340), Michaelis-Menten fit; assay type: biochemical, Tribonema minus; conditions: 50 mM Hepes pH 7.7, 100 mM NaCl, 1 mM DTT, 26 °C, pyruvoyl-dependent decarboxylation
Text: coupled CO2-release assay (NADH, A340), Michaelis-Menten fit on Tribonema minus SpeD homolog (KAG5182568)

[9] = substrate: N=C(N)NCCC[C@H](N)C(=O)O; test: as above; assay type: biochemical, Capsulimonas corticalis; conditions: 50 mM Hepes pH 7.7, 100 mM NaCl, 1 mM DTT, 26 °C, pyruvoyl-dependent decarboxylation
Text: coupled CO2-release assay (NADH, A340), Michaelis-Menten fit on Capsulimonas corticalis SpeD homolog (WP_119321511)

purified protein = substrate: NCCC[C@H](N)C(=O)O; test: purified protein; conditions: 50 mM Hepes pH 7.7, 100 mM NaCl, 1 mM DTT, 26 °C, pyruvoyl-dependent decarboxylation

T1 sequence (A0A2G9MN15 1-79 limits assumed): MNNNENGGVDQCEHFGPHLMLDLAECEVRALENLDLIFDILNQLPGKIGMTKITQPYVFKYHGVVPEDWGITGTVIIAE
T1 sequence (A0A2G9MN15 80-150 limits assumed): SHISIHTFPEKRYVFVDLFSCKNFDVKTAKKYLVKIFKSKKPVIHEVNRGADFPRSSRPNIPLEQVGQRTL

Question: For `N=C(N)NCCC[C@H](N)C(=O)O` [L-arginine], which Km [1] is on record?
Answer: 350 ± 24 µM

Question: And the Km [2]?
Answer: 95 ± 19 µM

Question: What about the Km [3] of the same molecule?
Answer: 760 ± 50 µM

Question: With `NCCC[C@H](N)C(=O)O` [L-ornithine] as the molecule, how does the Km [4] read?
Answer: 21 ± 1.3 µM

Question: And the Km [5]?
Answer: 89 ± 13 µM

Question: What about the Km [6] of the same molecule?
Answer: 270 ± 20 µM

Question: And the Km [7]?
Answer: 330 ± 30 µM

Question: “Ca. Poseidonales archaeon SpeD homolog (DAC51064) (Candidatus Poseidoniales archaeon)” was tested. Which Km (N=C(N)NCCC[C@H](N)C(=O)O) did it give?
Answer: 2800 ± 500 µM

Question: What about the kcat (N=C(N)NCCC[C@H](N)C(=O)O) of the same molecule?
Answer: 0.48 ± 0.042 s⁻¹

Question: And the kcat/Km (N=C(N)NCCC[C@H](N)C(=O)O)?
Answer: 180 ± 19 M⁻¹ s⁻¹

Question: For “Nannochloropsis gaditana SpeD homolog (XP_005856029) (Microchloropsis gaditana)”, which Km (N=C(N)NCCC[C@H](N)C(=O)O) is on record?
Answer: 1300 ± 100 µM

Question: And the kcat (N=C(N)NCCC[C@H](N)C(=O)O)?
Answer: 0.049 ± 0.003 s⁻¹

Question: And the kcat/Km (N=C(N)NCCC[C@H](N)C(=O)O)?
Answer: 39 ± 0.3 M⁻¹ s⁻¹

B1: Tribonema minus SpeD homolog (KAG5182568) (Tribonema minus) (protein)
chain: MRVPIQRTTVPQSSPLIRAHGSHIMLDFTEWWMPPEEGAEAVMELVRAALREEGVREVHHKAVVLGTRGESPPGFTAVVLIDESHVTAHCYADRGWLALDVFTCGGASTARVAAAIEAGVRRLSPRAVLQQRASAPRFVHRVD
notes: self-processed pyruvoyl enzyme
Question: Which results are given for B1?
Answer: Km [8]: 720 ± 110 µM; kcat [8]: 0.08 ± 0.004 s⁻¹; kcat/Km [8]: 110 ± 10 M⁻¹ s⁻¹

B2: Capsulimonas corticalis SpeD homolog (WP_119321511) (Capsulimonas corticalis) (protein)
chain: MKNHTTYGAHLTLRIANIERRHALQGPHGVSDLLVDLIDRIGMRILAGPLTAEETGDPERRGWSSVAILYESHCAIHTYPELGEAFLDVFSCKTFPIAAITTLLTERFGEFAIVEQSLTDRGIHWGPNVEKELASWVLTRSEK
notes: as for B1
Question: With B2 as the molecule, how does the Km [9] read?
Answer: 370 ± 50 µM

Question: What about the kcat [9] of the same molecule?
Answer: 0.08 ± 0.003 s⁻¹

Question: And the kcat/Km [9]?
Answer: 220 ± 36 M⁻¹ s⁻¹

B3: Methanospirillum hungatei JF-1 SpeD2 (WP_011448617) (Methanospirillum hungatei JF-1) (protein)
chain: MIDTLVPTREGIATAPAKSDQEIMEEFKSRNAWGLYTSVDLKNCNPETIRDAGKIREFVIQLCDLIKMKRFGEPQIINFGPCERVAGYSMTQLIETSLIGAHFANETNAAYIDIFSCKEYAPQLTAEFCREFFGADKVTVHIAFRD
Question: Which Km (purified protein) does the source give for B3 here?
Answer: 230 ± 18 µM

Question: And the kcat (purified protein)?
Answer: 0.05 s⁻¹

Question: What about the kcat/Km (purified protein) of the same molecule?
Answer: 220 M⁻¹ s⁻¹

B4: Ca. Velamenicoccus archaeovorus LiM SpeD homolog (WP_128700171) (Candidatus Velamenicoccus archaeovorus) (protein)
chain: MPKNVTMPAGSFGLEVVLDLYGCDPQTIRSAKKLSEFTTKLCKLLKMKKYGKTLLPHFGYDKAHTAGYSMLQFIETSSITGHFSELWNSAYINIFSCREFDAHKAADFTVKFFGARKATRRVLLRK
Question: For B4, which Km (purified protein) is on record?
Answer: 73 ± 3.2 µM

Question: What about the kcat (purified protein) of the same molecule?
Answer: 0.008 s⁻¹

Question: What about the kcat/Km (purified protein) of the same molecule?
Answer: 113 M⁻¹ s⁻¹
